Data from the nanobody polyreactivity screen of Harvey et al. (2022).

Assay: yeast display, Sf9 membrane polyspecificity reagent, FACS + sequencing; frameworks hold sequencing errors
Procedure, shortened: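 In a synthetic yeast display library (Saccharomyces cerevisiae BJ5465), nanobody expression was induced with galactose for 36–48 hours. FACS gates were set low and high (top ~1%) using anti-HA fluorescence for expression and streptavidin fluorescence for binding of the Sf9 membrane reagent. Each polyreactivity label is drawn from the gate of origin.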

Row | Sequence | polyreactivity (PSR sort gate)
1 | QVQLQESGGRQVQAGGSLRLSCAASGSNSYASGMGWYRQAPRKEREFVARIDPGAITNYADSVKGRFTISHDNAQNTVYLQMKSLKPEDNAVYYCAARVSTTDSRRILRKYLYYVHFDYWGQGTQLTVSS | high polyreactivity
2 | QVQLQESGGSLVQAGGSLRLSCAASGNILVLPHGLVSPGAERELVATITGGSITYYADSVKGRFTISRDNAKNTVYLQMNSLKPGDTDVYYCAVINIYHRPHPYWGQGTLVTVSS | high polyreactivity
3 | QVQLQESGRRPGAAGGSPRMSCAASGNIFWVAVMGRYRQAPGKERELVASIGFGCTTYYADSVKCRFTISRDNAKNTVYRQMISLKPEDTAVYYCAAPHYDWGELDYWGQGTQVPVSS | low polyreactivity
4 | QVQLQESGRRPRAAGGSPRMSCAASGNIIWVAVMCRYRQAPVKERELVASIGFGCTTYYADSVKCRFTISRDNAKNTVYLQMISLIPEDTAVYYCAAPHYDWGELDFWGQGTQVPVSS | low polyreactivity
5 | QVQLQESGSGLVQAGGSLRLSCAASGAIFPAYLMGWYRQAPGKERELVAGISYGSITYCADSVKGRFNISRDNAKNTVYLQMNSLKPEDTAVYYCAVWRPGVDEYYYWGQGTQVTVSS | low polyreactivity
6 | QVQLQESRGCLVQAGGSLRLTCAASGTISDSGLMGWYRQAPGKERELVAGISSGGITNYADSVKGRFTLSRDNAKNSVYLQMNSLKPEDTAVYWGQGTQVTVSS | low polyreactivity
7 | QVQLQESSGGLVQAGGSLRMSCAASGTIFHIHIMGRYRQAPGKEGEFVAAISYGTSTYYADSVKGRFTISRDNAKNTVYLQMNSQKPEDTAVYYCAVYDYLEVYFWYWGQGTQVTVSS | low polyreactivity
8 | QVQLQESSGGLVQAGVCLQQSCAASGSIFTQHPMGRYRQAPANEREFVAAINVGSNTYYADSVKGRITISRDNAKNTVSLQMNILTPEDTAVSYCAATSIRWSVGYFRRDYWGQGTQVTVSS | low polyreactivity
9 | QVQLQESVGGLVQAGGTQRLRCAASGNIFPTDRMGWYRQAPGKELEFVATISHGGSTNYADSVKGRFTISRDNAKNTVYLQMNSLKPEDTAVYYCAVWSLGRWRHYYWGQGTQVTVSS | low polyreactivity
10 | QVQLQESVGGLVQASGSIFHVPNMGWYRQAPGNERELVAGLAGGGNTNYADIVKGRFTISRDNAKNTVYLQRNSLDTAVYYCAVVGFGRGTHIYWGQGTQVTVSS | high polyreactivity
11 | QVQLQESVGGQVQAGGSLRLSCAASGTIFLYAFIGWYRQAPGKEPELVAAIDVGTTTNYADSVKGRFTISRDNAKNTVYLQMNSLKPEDTAVYYCAANLGYLDDLGYWGQGTQVTVSS | low polyreactivity
12 | QVQLQESVGGQVQAGVSLRLICAASCTISQEDWMGWYRQAPAKEREFVAAIGLGSNTNYADSLKGRFTISRDNAKNTVDLQMNSLKPEDTAVYYCAVSVWQYSDHVYRGQGTQVTVSS | low polyreactivity
13 | QVQLQQSVGGLVQAGGSLRLSCAASGNIFPTDRMGWYRQAPGKELEFVATISHGGRTNYADSVKGRFTISRDNATNTVYLQMNRLKPEDTAVYFCAVWSLGRWRHYYWGQGSQVTVSS | low polyreactivity
14 | QVQLQVSGGGLVQAGGSLRLSCAASGSIFLTSEMGWYRQAPGKERELVAAIATGTSTNYADSVKGRFTISRDNAKNTVYLQMNSLKPEDTAVYYCATYHYWGQGTQVTVSS | low polyreactivity
15 | QVQLRESGGGLVQAGGSLLSCAASATISYYREMGWYRQAPGNERELVAGIGVGTITYYADSVKGRFTISRDNAKNTVYLQMNSLKPEDTAVYYCAAHIEGNDSHAYWGQGTQVTVSS | low polyreactivity
16 | QVQLVASGGGLVQAGGSLRLSCAASGRNFRSYVMGWYRQAPGKERDLVATITRSGGGTTYADSVKGRFTISRDNAKNTVYLHMKSLKAEDTAVYYCNAERRYSWYSQGDYWGQGTQVTVSS | high polyreactivity
17 | QVQLVASGGGLVQSGGSLRLSCAASGFIFAYYAMGWYRQAPGTERELVAAISRGGRPYYADSVKGRFTISRDNAKNTVYFQMNSLKPEDTAVYYCAARRWRRYQSGGSYSGMDHWGQGTQVTVSS | high polyreactivity
18 | QVQLVDSAAALVQAGGSQRLTCAASGLIFYYSVMGSYRQAPGKERELVARISTSGGSTYYADSVKGRFTISRDNAKNTVYIQMNSLKPEDTAVYYCAARGYRQYGWDCYCGQGTQVTVSS | low polyreactivity
19 | QVQLVDSAGGLVQAGGSLRLSCDDSGRTFWYYTMGWYRQAPGKEREFLAAIRGSGTSTYYADSVKARYTISRDNAKNTVYFQMNSLKPEDTADYYCAAESPVYHLVTYDYWGQGTQVTVSS | high polyreactivity
20 | QVQLVDSCGGLVQAGGSLRLSCAASGSISYYYAMGWYRQAPGKERELVAAITRTGTTNYADSVKWRFTISRDNAKNTVFLQMNSLKPEDTAVYYCAKRSTGRLQSYNYWGQGTQVTVSS | low polyreactivity
21 | QVQLVDSGAGLVQAGGSLRISCAATGSTFPRYGMGWYRQAPGKERQMVAAISSGGRTNYADSVKGRFTISRDNAKNTVYLQMNSLKPEDTAVYYCAARIPYYFSYYFYSGMDYWGQGTQVTVSS | high polyreactivity
22 | QVQLVDSGAGLVQAGGSLRISCVPPDSTTQSKLGDRIHRRLGKKVTWLPVLTSRGVGSYYADSVKGRFTISRDNAKNTVYLQMNSLIPEDTAVYYCNARYEVFYRYDYWGQGTQVSVSS | low polyreactivity

Row | Sequence | polyreactivity (PSR sort gate)
23 | QVQLVDSGAGLVQAGGSLRLSCDASGSTFRGYAMGWYRQSPWKERELVAAITYISDSTYYADSVKGRFTISRDNAKNTVFLQMISLNPEDTAVYYCNAYYDGDWRYTSQVTGDLWGQGTQVTVSS | low polyreactivity
24 | QVQLVDSGGCLVQAGGSLRLSCDASGRISQNAMGWYRQAPGKERELVAAITFSGGSTYYADSVKGRFTISRDNAKNTVYLQMNSLKPEDTAVYYCNVRQYTDGLKYDYWGQGTQVTVSS | low polyreactivity
25 | QVQLVDSGGDLVKAGGSLRLSCDASGSTFRDYDMGWYRQAPGKERELVDAITGSGSSTYYADSVKGRFTISRDNAKNTVYLQMNSLKPEDTAVYYCAATWVVSYRVYRSYYWGQGTQVTVSS | low polyreactivity
26 | QVQLVDSGGGFVQAGGSLRLSCAASGSILAQKAMGWYRQAPGKERELVAAISWSGGRTYYADSVKGRFTISLDNAKNYVYLQMNCLKPEDTAVYYCNKVRRASTVHPDNYWGQGTQVTVSS | high polyreactivity
27 | QVQLVDSGGGLDQAGGSLRLSCASSGSSSNTMLWDGKDRRLGKKGSWSSTNYADSVKGRFTISRDNAKNTVYLQMNSLKPEDTAVYYCNAYHDYITEFNYWGQGTQVTVSS | low polyreactivity
28 | QVQLVDSGGGLVDAGGRLRLSCAASGRTFYAYPMGGYRQAPRTERELVAAITKRDGITFYADSVKGRFTISRDNAKNTVYLQMKSLKPEDTAVDYCDATGYVGGIYGHYPRGYWGQCTQVTVSS | high polyreactivity
29 | QVQLVDSGGGLVHAGGRLGLSREDYGSTFPYYSMGWYRQAPGKERELVAAISGGGGSTYYADSVKGRFTISRDNAKNTVYLQMNSLKPEDSAVYYCNAYKYISPGDYWGQGTQVTVSS | high polyreactivity
30 | QVQLVDSGGGLVKAGGSLRISCPASGITLKYYSMGWYRPSPGKERELVAAITRSGVGTYYADSVKGRFTISRDNAKNTVYLQMNSLKPEDTAVYYCAARGGWLQTKYDYWGQGTQVTVSS | high polyreactivity
31 | QVQLVDSGGGLVQAAGSLRLSCAASGSIFIFNTMGWYRQAPGKESELVASISSSGSTYYADSVKGRFTISRDNAKNTVYLQMKSLKPEDTAVYYCAATYYRPAYYGSYYYWGQGTQVTVSS | low polyreactivity
32 | QVQLVDSGGGLVQAGASLRLSCAASGSTFSSNVMGWYRQAPGKERELVAAITKTGGLTYYADSVKGRFTISRDNAKNTVYLNMNSLKPEDTSVYYCAAKSKRRGTTSVYYYWGQGTQVTVSS | high polyreactivity
33 | QVQLVDSGGGLVQAGGILRLSCASSGITFPGYDMGWYRQAPGKERDLVARISRSGGSTYYADSVKGRFTISRDNAKNTVYLQMNSLKPEETAVYYCAAGAYRSGGYRFDYWGQGTQVTVSS | low polyreactivity
34 | QVQLVDSGGGLVQAGGNLRLSCAPSGYTFGKYAMGWYRQAPGKERELVAGISSRGGSTYYADSVKGRFTISRDNAKNTVYFQMNSLKPEDTAVYYCAAVAYTGGPRKLGFYYWGQGTQVTVSS | high polyreactivity
35 | QVQLVDSGGGLVQAGGRLRLSCAASGLIFSYYARGRYRQGPRKERELVPAISSGGRTSYADSVKGRFTISRDNEKNTVYLKMNSVKPEASAVYYCAAYPVYNRPGDYWGQGTQVTVSS | high polyreactivity
36 | QVQLVDSGGGLVQAGGRLRLSRAASGSIFRRYPMGWYRQAPGKERELVAAISRNSGRTYYADSVKGRFTISRDNAKITDYLQMNSLKPEDTAVYYCNADTSLAANGKFDYWGQGTQGTVSS | high polyreactivity
37 | QVQLVDSGGGLVQAGGSISLSCAPSGFTIVGNAMGWYRLAPGKERELVAAISSGDDTNDADSVKGRFTISRDNAKNTVYLQMYSLKPEDTAVYYCAAAYYYYVSGWFDYWGQGTQVTVSS | low polyreactivity
38 | QVQLVDSGGGLVQAGGSLRIIRAASGSISGYNAMGWYRQAPGKERELVAAIYRSDGKDYADSVKGRFTISRDNAKNTVYLQMNSMIPEDTAVYYCIAVKWSVVGYVLGFYRDDYWGQGTQVTVSS | low polyreactivity
39 | QVQLVDSGGGLVQAGGSLRISCAASGSTFSINTMGTYRQAPGKERELVAAITTRGSSTYYADSVKGRFTISRDNAKNTVYLKMNSLKPEDTAVYYFNAPYRVTGGRYRWYDYWGQATQVTVSS | high polyreactivity
40 | QVQLVDSGGGLVQAGGSLRISCPASGRIIDLNARGWYRQAPGKERELVAAISYSGGRTFYADSVKGRFTISRDNAKNTVDLQMISLKPEVTAVYYCNVRRGDRFVRHDYWGQGSQVTVSS | low polyreactivity
41 | QVQLVDSGGGLVQAGGSLRLICAASGITFYYYAMGWYRQAPGKERELVAAISSRGGSTYYADSVKGRFTISRDNAKNTVYLQMNSLKPEDTAVYYWAALYGVSEEDDYWGQGTQVTVSS | high polyreactivity
42 | QVQLVDSGGGLVQAGGSLRLICAASGRTIDNYAMGWYRQAPGKERELVAVISRSGDRRYYPDSEKGRFTISRDNAKNTVYLPMKSLKPEDTAVYYCNAVYGRSIYDGLFYTYDYWGQCTQVTVSS | high polyreactivity
43 | QVQLVDSGGGLVQAGGSLRLICAASGSIFGKNAMGWYRQAPGKERELVAAISKRGGTTYYADSVKGRFTISRDNAKNTFYLLMNSLKPEDTAVYYCAAYYYVHRSSHYLSPYDFWGQVTQVTVSS | high polyreactivity
